In PMC10041115, “Cryo-EM structure of the four-subunit Rhodobacter sphaeroides cytochrome bc1 complex in styrene maleic acid nanodiscs” (Proceedings of the National Academy of Sciences of the …, 2023):

Assays:
[1] = molecular target: T1, four-subunit cytochrome bc1 complex (WT) in SMA nanodiscs (Cereibacter sphaeroides, UniProt Q02761+Q02762); test: cryo-EM structure, […] Å; assay type: binding; conditions: natively bound, co-purified; Qo site of one cyt b; isoprene tail truncated in model; redox state not determined; H-bond to Rieske His152
T1 construct: gene petB; native purification from photosynthetically grown cells, SMA lipid nanodisc, His10 tag on cyt c1, dimer; SIV 124 residues, 79-107 resolved; with Cytochrome c1; Ubiquinol-cytochrome c reductase subunit IV

[2] = molecular target: T2, cytochrome b subunit of the Rhodobacter sphaeroides cytochrome bc1 complex (Rhodobacter sphaeroides, UniProt Q02761 1-445); test: cryo-EM structure; conditions: both partners purified
T2 construct: also called cyt b; source: endogenous, R. sphaeroides grown photosynthetically; SMA-solubilised membranes, purified in native nanodiscs (Ni-NTA, sucrose gradient, SEC)
T2 sequence (looked up): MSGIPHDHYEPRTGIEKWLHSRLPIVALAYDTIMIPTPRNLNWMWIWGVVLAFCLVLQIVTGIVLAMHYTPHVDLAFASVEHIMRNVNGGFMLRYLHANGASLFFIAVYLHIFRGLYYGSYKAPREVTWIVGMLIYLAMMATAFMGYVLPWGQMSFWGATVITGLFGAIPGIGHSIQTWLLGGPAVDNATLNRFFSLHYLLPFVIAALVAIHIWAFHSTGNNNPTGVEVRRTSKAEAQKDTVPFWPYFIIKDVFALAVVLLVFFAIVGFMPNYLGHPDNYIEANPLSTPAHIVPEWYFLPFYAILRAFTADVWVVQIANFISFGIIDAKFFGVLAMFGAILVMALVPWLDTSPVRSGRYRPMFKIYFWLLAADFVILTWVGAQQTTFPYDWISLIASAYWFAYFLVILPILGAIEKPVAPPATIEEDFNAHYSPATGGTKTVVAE

[3] = molecular target: the molecule itself; test: cryo-EM structure; purified four-subunit cyt bc1 in SMA native lipid nanodiscs, no inhibitors added, 20 mM Tris-HCl pH 8, 200 mM NaCl; C1 consensus map at 2.9 Å and a focused class at 3.75 Å (FSC 0.5)

COC1=C(OC)C(=O)C(C/C=C(\C)CC/C=C(\C)CC/C=C(\C)CC/C=C(\C)CC/C=C(\C)CC/C=C(\C)CC/C=C(\C)CC/C=C(\C)CC/C=C(\C)CCC=C(C)C)=C(C)C1=O [U10, ubiquinone-10]
cryo-EM structure, 2.9 Å [1]: a ubiquinone-10 molecule bound in the Qo site of one of the cyt b subunits

B1: Rieske iron-sulfur protein subunit of the Rhodobacter sphaeroides cytochrome bc1 complex (natural protein, UniProt Q02762 1-187, looked up)
chain: MSNAEDHAGTRRDFLYYATAGAGAVATGAAVWPLINQMNPSADVQALASIFVDVSSVEPGVQLTVKFLGKPIFIRRRTEADIELGRSVQLGQLVDTNARNANIDAGAEATDQNRTLDEAGEWLVMWGVCTHLGCVPIGGVSGDFGGWFCPCHGSHYDSAGRIRKGPAPENLPIPLAKFIDETTIQLG
notes: also called Rieske subunit; Rieske ISP; source: endogenous, R. sphaeroides grown photosynthetically; SMA-solubilised membranes, purified in native nanodiscs (Ni-NTA, sucrose gradient, SEC)
binding result [2]: binds

B2: four-subunit Rhodobacter sphaeroides cytochrome bc1 complex (one monomer of the dimeric complex: cyt b, cyt c1, Rieske subunit, SIV) (complex)
chain 1: T2 sequence (looked up)
chain 2: AGGGHVEDVPFSFEGPFGTFDQHQLQRGLQVYTEVCAACHGMKFVPIRSLSEPGGPELPEDQVRAYATQFTVTDEETGEDREGKPTDHFPHSALENAADLSLMAKARAGFHGPMGTGISQLFNGIGGPEYIYSVLTGFPEEPPKCAEGHEPDGFYYNRAFQNGSVPDTCKDANGVKTTAGSWIAMPPPLMDDLVEYADGHDASVHAMAEDVSAFLMWAAEPKLMARKQAGFTAVMFLTVLSVLLYLTNKRLWAGVKGKKKTNV
chain 3: B1 chain
chain 4: MFSFIDDIPSFEQIKARVRDDLRKHGWEKRWNDSRLVQKSRELLNDEELKIDPATWIWKRMPSREEVAARRQRDFETVWKYRYRLGGFASGALLALALAGIFSTGNFGGSSDAGNRPSVVYPIE
notes: also called cyt bc1; cyt bc1-nanodisc complex
stoichiometry N [3]: 2
